Biological target: T1, pig α2β1 integrin (pig, UniProt F1SMF4 28-1178; Q9GLP0 21-798)
T1 construct: whole, on cells; Tested with whole blood
Assay: FACS on whole blood, PE-coupled goat anti-mouse IgG

B1: anti-α2 integrin mAb purified from hybridoma supernatant (murine) (antibody, mouse IgG2a, kappa)
light: NIVLTQSPASLAVSLGQRATISCRASESVESYGNSFIYWYQQKPGQAPKLLIYLASNLASGVPARFSGSGSRTDFTLTIDPVEADDAATYYCQQNNEDPYTFGGGTKLEIKRADAAPTVSIFPPSSEQLTSGGASVVCFLNNFYPKDINVKWKIDGSERQNGVLNSWTDQDSKDSTYSMSSTLTLTKDEYERHNSYTCEATHKTSTSPIVKSFNRNEC
heavy: QVQLHQPGAELVKPGAPVKLSCKASGYTFTSYWMNWVKQRPGRGLEWIGRIDPSDSETHYNQKFKDKATLTVDKSSSTAYIQLSSLTSEDSAVYYCAKVGRGYFDYWGQGTTLTVSSAKTTAPSVYPLAPVCGDTTGSSVTLGCLVKGYFPEPVTLTWNSGSLSSGVHTFPAVLQSDLYTLSSSVTVTSSTWPSQSITCNVAHPASSTKVDKKIEPRGPTIKPCPPCKCPAPNLLGGPSVFIFPPKIKDVLMISLSPIVTCVVVDVSEDDPDVQISWFVNNVEVHTAQTQTHREDYNSTLRVVSALPIQHQDWMSGKEFKCKVNNKDLPAPIERTISKPKGSVRAPQVYVLPPPEEEMTKKQVTLTCMVTDFMPEDIYVEWTNNGKTELNYKNTEPVLDSDGSYFMYSKLRVEKKNWVERNSYSCSVVHEGLHNHHTTKSFSRTPGK
notes: also called α2 mAb from hybridoma supernatant; anti-α2 integrin monoclonal mouse antibody
B1: no binding.

From patent US20160176970A1 (published 2016)
